# Test: label from the status in PepcDB records
row,Sequence,protein production
1,MKQILFLLAAVLLLGGCAEEKKTDVRWATFNIRYDNPQDSLNNWQYRKDRVCQFIKDHELDIVGMQEVLHNQFQDLRAGLPEYDGIGVGRDDGKTAGEYAPLFYRKDKYEVLDSNTFWLAENPDSVGMMGWDAVCVRIATWAKFKDKATGKIFMAVNTHFDHVGEEARRQSALLIIRKIKEIVGERPAVVTGDFNVTDASDAYETITTNEFVMKDAYKTAARVTGVDYTFHDFARIPAEDCEKIDFIFVTPQVLVKSCEIPAEVPEALLSDHNPQLADLEF,failed
2,MKQIVAGIVAHVDAGKTTLSEALLYRTGEIRKLGRVDHGDAFLDTNSLEKARGITIFAHQALVEHGDLRLTLLDTPGHVDFAAETERVLRVLDYAILVVSGTDGVQGHTETLWRLLARYGVPTFIFVNKCDAAGFAREAILAQLRKRLSDAIYPLPAMEQFTEGSAVPLDAFAEDIATLDEEAMNDYLEHGVLSVGRLRSMIAVRELFPVYFGSALKLEGVEEFLDGLETFTREREWPAAFAARVFKIAHDGQHNRMTWLRVTGGALKAKEIVSSSSCAAASTPSPAQEDDGMAWSEKVDQVRIYNGAKFETVTEVPAGSVCAVTGLTRTFPGEGLGAEPDAESPSLQPVLTYTVLPAGAESDTAGTSGAAKRGGTGHDSVNRDDAEHDAAKSETGRNEENDTAGQDAETDNSSPALPQFDDLTLHKVITALRELEDEDPLLHVVWVERLAEIHVQLMGTVQLEIIQQTLHDRFGLDVSFGPGSILYRETITAPVEGAGHFEPLRHYAEAHILLEPGEPGSGVTVGSALSENDLDRNWQRLILTHLTEREHLGVLVGAPLTDIKMTLVAGRAHLKHTEGGDFRQATYRAIRQGLMEARAGVSGRPETPVESRPDTTGEGNCRLLEPWYRFRLEVPADMIGRAMSDIQRMAGTFESPVTDGEYAVIEGEAPVSEMRDYAMDVNQYTHGHGHFSATFGGYKPCHDAKQVIAAAAYDPEADLDNTPDSVFCAHGAGYPVKWYKVPEFAHVDYVM,failed
3,MKQLFQKLYDHIEITLLVLLSVSFVTGMYMMMNRPIGPTMMDYVPQVIIGTIIIVDIVFLISGRKKENSK,failed
4,MKQLNDGDFIKIEFEMRVGEEKKLVSTSKADLAKENDIFDENARYGDIVVIVGQEGIFKEVNEAFRKAEPGQEVEVEVPPEDAFGQRLPSNIKIHTMREFQRLEHHHHHH,not failed
5,MKQLSGLLGELRQKLCAGFPEQAGIQQLIFPAPGLVGRQLLEWLTAQTHFPQFYWRHRDNHEEAAVCGQTRSFADMKDADDFIQQNPDANGLRIWGLNAFEPVMVFGQLTDNGLVSGKNAQASFLFLPRLEILRRGKKTSLTLNLSSETSLQKDALQAITFIDQLMAARALPVLNARIQHSSHTPGYPQWRNLIQQALNDIEQQKLDKVVLARTTTLTLNKPLSCAAFMAASRQVNHRCYHFMLRFDDRQAFLGSSPERLYLRQQLHLETEALAGTVSNLDSDPQAAVLADWLMHDEKNQRENLLVVDDICQRLQGGVTAVDVMPPEIIRLRKVQHLRRRICAQLSRASDTDCLQRLQPTAAVAGLPREAARQFIAKHELFSRGWYAGSAGYLSLKRTEFSVALRSARVDGQQIHLYAGAGIVAGSDAEQEWQEIDNKSAGLQSLLEHEAQPVKA,not failed
6,MKQMKFKYAYQLFFTQFIILLIACIMIGVLVSHSLKDYFYQSQVDDLTSYGQTISRDIRYSPQDATMQVLNTYQRILDVKKIHYTIKNANDETIYPTQMNQPLPKDFSISADDKKKLESGETVSKKIDNRFNKEMTIVYVPIMNGDKFVGSIVLNSPISGTEQVIGTINRYMFYTILLSITVALILSAILSKLQVNRINKLRAATKDVIQGNYNARLKENNFDEIGALAIDFNKMTQTLETSQEEIERQEKRRRQFIADVSHEMRTPLTTISGLTEGLVNDIIPKSETDRCIALIDTEARRLTKLVNENLDYEKIRSNKIKLQKTRFNGKEFLELIKEQLDYVASEKGNTITVAIDKDMAIYADYDRLTQVFINIVKNSVQFTENGQITLTGTQDYKESVLTITDTGIGMNTEELEQIWERFYKADMSRTNTAFGESGIGLSIVKQLIEYHDGSITVTSEPNKGTSFTIRLPFFQDNEQ,failed
7,MKQPTAVIFDWYNTLIDTSINIDRTTFYQVLDQMGYKNIDLDSIPNSTIPKYLITLLGKRWKEATILYENSLEKSQKSDNFMLNDGAIELLDTLKENNITMAIVSNKNGERLRSEIHHKNLTHYFDSIIGSGDTGTIKPSPEPVLAALTNINIEPSKEVFFIGDSISDIQSAIEAGCLPIKYGSTNIIKDILSFKNFYDIRNFICQLINI,not failed
8,MKQRRKGQENSDTEEMISRIYPYITRVFDIYEIQKSGEILYFFGTPKTDAENVMGELWAPLEQRGLGGTLKYELGEHVLIVTPVKKAKEKHWVNLALFIATVFTTMICGAWLFGVDLWSEPLQIFQGLPFTLAILAVLGSHEMAHYAMARHHGMKTSLPYFIPFPTFIGTMGAVIRYRGPIPDRKALFDVGIAGPLVGLLVSIVVTIIGLNLDVPAVKPLPDSLMFELGLPPLFVMLQKLVGVTGSNLHPVAFAGWVGMFVTLLNLLPAGQLDGGHVLRAMLGKKADWVSSMMPRILLMIGIYVVYGLKGDGFIWIFWALFLWAFAAAGHPSPLHDKMKLDRKRILIGILTFILGLLCFTLIPFKPIT,failed
9,MKQSKIRSVLQSIALLVLAGTAAAEPKLEKITHGRFEQIPVLRPDGEPQRVVIWFSGAGHVDQRTRQAELLRQDGAMVALVDTTHLYKVLAADSNHCTFSVGDVENLSRYLQAYYRDKTYRLPLLVGDGDGSGLVYAVAAQAPENILAGVVTDGLCP,failed
10,MKQSLQIWLEAARPKTLPLALVSILTGSVLAYSAGHFSLTIAIMAFATATLLQILSNLANDYGDAVKGTDNENRLGPQRAMQTGAVSAKQMKQAIIFNIVLTAISGLVLVFYALSSPESIITFIGLGILAIIAAIAYTMGSKPYGYVGLGDISVFLFFGLLGVSGTYFLHTGHVDTTLFLPALGCGLLAVAVLNINNMRDIENDRECGKRTVAVRLGQHKAKQYHFILLGGAILAFAAYLLIQDKPLWISLPFLLSVYVVIHHGKAVWDTEKPAQIAPMLPVIVKCSLVTNVLFATIVVAQTLVS,failed
11,MKQTELLKGILEGLVLAIIQRKETYGYEITKILNDQGFTEIVEGTVYTILLRLEKNQWVIAEKKPSEKGPMRKFYRLTSSGEAELADFWQRWTLLSKQVNKMKKNGGIEHVKF,not failed
12,MKRADIKRRPLADTTLTGLEPEAKEYRELDGNGLYFRVKPDGGKSWQLRYKRPAGNWAWMGLGGYPEVSGALAREKAAELRKTISSGIDPLEQKRSAKAAIDAAKTRTFRAAADAWLKAKEEKGLAPSTLNKIRTYLDKDILPALGDKPLDEITRTDCAELQASIEARDAHNVAEKCRTWINQIFGRAIGLGLTENDPGSRLRDIAAQAPKTQQHPHLLEPELGEFLTALKNTPSRLTARTAAWLCIWTASRPGMVRLAEWKEFDLDKATWTTPAAKMKMRRDFVCPLPHQAIAALKELHCLTGRSRWLFPGVGAKNPTISENTINKVFATIGYKGRLVGHGTRHTASTLLREHGWPKEHVEAQLAHKEEGISGVYNKAQYLEQRITMMQWYADHLDALEQGKVIQGQFGKAL,failed
13,MKRALEFLKECGVFYLATNEGDQPRVRPFGAVFEYEGKLYIVSNNTKKCFKQMIQNPKVEISGMNKKGQWIRLTGEVANDDRREVKELALEAVPSLKNMYSVDDGIFAVLYFTKGEGTICSFKGENETFSL,not failed
14,MKRAYKIEINPTDDQKSKIHQTIGVSRFIYNFYIAHNKEIYEKEGKFVSGMDFSKWLNNEYIPNNQDKKWIKEVSSKATKQAIMNGDKAFKDFFKKAKGFPRFKKKKNQDVKAYFPKNNKTDWTLERHRVKIPTLGWVRLKEFGYIPKNSVVKSGTVSQKADRYYVSILVEETYIKISNPNNEGLGIDLGIKEFAICSNGNKFKNINKTSTVKKIEKKLKREQRKLSRKYESLKIRNKNIKEGRATRQNIQKQVVKVQRLHQRLANIRTDYINKTVFSIVKQKPSYITIEDLAVSNMMKNKHLSKAISSQKFFEFKTKLMSKCKQNNIELRIVDRFYPSSKTCSNCGKIKKDLKLSDRIYKCDCGFTIDRDLNASINLKNAKEYKIA,failed
15,MKRGEELPPLEIEVTRTLIVAGAIASRDYQDVHHDAESARRRGSPDIFMNILTTNGLVGRYITDHFGPGAVLRKVAIRLGAPNYPGDTMVLTGTVVEVEGDTATVKVIGANGIGTHVRGTVTVTVPPGSASLEHHHHHH,failed
16,MKRIFSLLEKTWLGAPIQFAWQKTSGNYLAVTGADYIVKIFDRHGQKRSEINLPGNCVAMDWDKDGDVLAVIAEKSSCIYLWDANTNKTSQLDNGMRDQMSFLLWSKVGSFLAVGTVKGNLVIYNHQTSRKIPVLGKHTKRITCGCWNAENLPALGGEDKMITVSNQEGDTIRQTQVRSEPSNMQFFLMKMDDRTSAAESMISVVLGKKTLFFLNLNEPDNPADLEFQQDFGNIVCYNWYGDGRIMIGFSCGHFVVISTHTGELGQEIFQARNHKDNLTSIAVSQTLNKVATCGDNCIKIQDLVDLKDMYVILNLDEENKGLGTLSWTDDGQLLALSTQRGSLHVFLTKLPILGDACSTRIAYLTSLLEVTVANPVEGELPITVSVDVEPNFVAVGLYHLAVGMNNRAWFYVLGENAVKKLKDMEYLGTVASICLHSDYAAALFEGKVQLHLKAKSWMLTKNVRLGFSQQWMISAVSYAMP,failed
17,MKRIHVRYKQIRRFFLLLGLVIIAAYVAFVLYRYWDHWLLLSNPQKAIENFEQQFRSENLFNFLVLTVLTSLTAAIPFLSSSVLSVFNGVVFGPWIGVLMNTIGNILGHFFLIQMMSRVDLTERDSKFNHHLERLSQIKNPYLALTLGYMIPFIPSFLVDYMVLDTKIPWHRWLPCLTLGVIPTSILYAFGGHAIIAGNMKQLILIVLLALILLAIYKRFEKKKG,failed
18,MKRKIIVACGGAVATSTMAAEEIKELCQSHNIPVELIQCRVNEIETYMDGVHLICTTARVDRSFGDIPLVHGMPFVSGVGIEALQNKILTILQG,not failed
19,MKRKKLSIFILSAAIVTSSVSYGMTAKADEVKETKGYNYNVNLSEQKAVANNKISVKKVNGEILGYANPFTMLQILNMNGKTVEVITQSGLRGYVDANEFTLVESAVNDKLIEKNIEGHVTNVSTVLNLRKEPRIGAEIINRLLNNTKVNILGKQGSWYKIELNGQKGYVYGMFLNEGTMKENSSKTIANKKSEVKSKDKKEKKSSVKKEAKKEVVSGVKAKVVQKQREEAKANMTSEAKPAINKDAKSNNKVEVKSEVKKEAKNEVKTEMNSSTKVETSQVVTSEMVQAVNTEVKSEKNQEANLQVRPEIKSEEKTEMISKENLNVIPEAKKEGISEEIKPEVNTEVESKPEMNKEVKAEEGKTAPEVKLEEKQEVKPVEASEEKVEVKKEEVQDPKAKEMDELLKSEEYKFLRMSISYGERLVDRNDVYTKDSLKILRTELEKAKKVFQDKDNLTMKLVQDTRDDLERAIVDLVKISDVKKPVKSKAKVEVKKESNTEKKQEVKEQPAKAEVIVPEVKENKEIKKEEPVKAKEVVKEKKSREEEIEEILKSEEYRFLLKDIAYGERLSEKITVYTRDSLKVLNAAIEKAGRIVRQKEKLTVKLVQDTRDDVDRAIVDLVKKNN,failed
20,MKRKWIDALWVMGVLLMAGFCLSACNRELDVQTVFPFEVSTMPVPKQIKQGETVEVRCSLVSEGDFSGTCYTMRFFQTEGKGVLRIGRGVALKPNDCYPVGKGDFRLYYTSQSKERQSLEIVFEDNHGQSQTIVLDFNHKESDEDKEREAGYRT,failed
21,MKRLADVKISTLDLVPVRHDKGPAESLRNSLSLAQHVEKLGYNRFWVAEHHNMDGIASSATSVLLAYLAGGTSTIRVGAGGIMLPNHAPLVVAEQFGTLASLYPDRIDLGLGRAPGSDQMTARALRRERSGSAEDFPDDVTELMEYLGPRTPDQKVIAVPGSGTNVPIWLLGSSLFSAQLAGMRGLPYAFASHFAPRYMHEAIRVYRNHFQPSAVLDKPYVMLGVPLSAADTDEQAEYLATSVYQRILALMRGHSLMQRPPVDSMDGLWLPHEREAVASFLGLAMVGGPEKIRAKLDVLLEQTDADELIFTCDMYEHEDRLRSYEILAQ,failed
